Here are results for five molecules from publication PMC2659343.

In data set [1] the target is T1, MCR1 (MBP-core RAG1) (UniProt P15919 384-1008).
T1 sequence: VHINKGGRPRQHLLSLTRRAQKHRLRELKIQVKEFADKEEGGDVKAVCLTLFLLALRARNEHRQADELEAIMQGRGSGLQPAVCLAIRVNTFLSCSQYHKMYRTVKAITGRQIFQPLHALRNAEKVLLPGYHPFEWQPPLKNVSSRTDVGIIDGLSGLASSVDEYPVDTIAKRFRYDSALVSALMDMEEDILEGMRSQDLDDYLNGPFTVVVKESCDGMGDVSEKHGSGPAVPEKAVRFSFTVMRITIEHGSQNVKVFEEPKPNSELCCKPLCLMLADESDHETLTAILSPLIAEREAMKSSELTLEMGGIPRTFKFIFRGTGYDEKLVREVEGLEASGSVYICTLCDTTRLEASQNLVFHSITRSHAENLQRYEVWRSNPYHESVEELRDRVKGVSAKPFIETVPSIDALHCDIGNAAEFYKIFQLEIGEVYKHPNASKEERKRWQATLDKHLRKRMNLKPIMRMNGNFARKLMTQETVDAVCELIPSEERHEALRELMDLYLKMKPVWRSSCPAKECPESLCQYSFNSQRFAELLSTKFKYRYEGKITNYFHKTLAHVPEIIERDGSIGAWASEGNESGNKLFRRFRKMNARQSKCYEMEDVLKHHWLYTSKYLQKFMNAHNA
Briefly: EMSA.

In data set [2] the target is T2, MCR1 (MBP-core RAG1);GST-core RAG2 (mouse?;mouse?, UniProt P15919;P21784 384-1008;1-387, |).
T2 sequence 1: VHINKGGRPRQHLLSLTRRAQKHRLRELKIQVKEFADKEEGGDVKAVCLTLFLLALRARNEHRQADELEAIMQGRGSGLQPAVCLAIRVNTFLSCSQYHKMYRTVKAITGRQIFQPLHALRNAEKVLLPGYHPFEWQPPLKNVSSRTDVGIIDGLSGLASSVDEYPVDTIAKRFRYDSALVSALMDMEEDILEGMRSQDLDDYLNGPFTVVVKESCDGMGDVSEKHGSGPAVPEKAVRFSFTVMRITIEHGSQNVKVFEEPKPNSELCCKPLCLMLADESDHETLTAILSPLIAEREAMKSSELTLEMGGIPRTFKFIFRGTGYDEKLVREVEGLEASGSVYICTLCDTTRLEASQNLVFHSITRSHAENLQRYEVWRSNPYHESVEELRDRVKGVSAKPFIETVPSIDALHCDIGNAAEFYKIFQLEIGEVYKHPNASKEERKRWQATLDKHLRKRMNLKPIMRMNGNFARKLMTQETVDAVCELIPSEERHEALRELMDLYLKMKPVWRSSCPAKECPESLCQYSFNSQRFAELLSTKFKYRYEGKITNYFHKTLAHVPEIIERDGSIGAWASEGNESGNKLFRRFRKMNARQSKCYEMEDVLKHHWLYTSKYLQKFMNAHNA
T2 sequence 2: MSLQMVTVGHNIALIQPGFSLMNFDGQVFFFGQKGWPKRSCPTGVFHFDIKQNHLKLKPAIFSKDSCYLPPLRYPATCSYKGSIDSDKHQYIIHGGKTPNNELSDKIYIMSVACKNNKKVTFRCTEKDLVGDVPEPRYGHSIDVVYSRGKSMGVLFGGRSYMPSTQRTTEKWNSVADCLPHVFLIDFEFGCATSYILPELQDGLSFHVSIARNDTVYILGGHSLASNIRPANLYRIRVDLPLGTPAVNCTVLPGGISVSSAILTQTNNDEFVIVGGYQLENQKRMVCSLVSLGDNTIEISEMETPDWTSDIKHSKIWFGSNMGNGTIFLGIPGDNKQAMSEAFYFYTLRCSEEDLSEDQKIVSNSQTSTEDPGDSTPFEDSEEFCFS
Kind of data set: EMSA.

Data set [3] deals with T3, MCR1 from 293T (co-expressed with GST-core RAG2);GST-core RAG2 (mouse?;mouse?, UniProt P15919;P21784 384-1008;1-387, |).
T3 sequence 1: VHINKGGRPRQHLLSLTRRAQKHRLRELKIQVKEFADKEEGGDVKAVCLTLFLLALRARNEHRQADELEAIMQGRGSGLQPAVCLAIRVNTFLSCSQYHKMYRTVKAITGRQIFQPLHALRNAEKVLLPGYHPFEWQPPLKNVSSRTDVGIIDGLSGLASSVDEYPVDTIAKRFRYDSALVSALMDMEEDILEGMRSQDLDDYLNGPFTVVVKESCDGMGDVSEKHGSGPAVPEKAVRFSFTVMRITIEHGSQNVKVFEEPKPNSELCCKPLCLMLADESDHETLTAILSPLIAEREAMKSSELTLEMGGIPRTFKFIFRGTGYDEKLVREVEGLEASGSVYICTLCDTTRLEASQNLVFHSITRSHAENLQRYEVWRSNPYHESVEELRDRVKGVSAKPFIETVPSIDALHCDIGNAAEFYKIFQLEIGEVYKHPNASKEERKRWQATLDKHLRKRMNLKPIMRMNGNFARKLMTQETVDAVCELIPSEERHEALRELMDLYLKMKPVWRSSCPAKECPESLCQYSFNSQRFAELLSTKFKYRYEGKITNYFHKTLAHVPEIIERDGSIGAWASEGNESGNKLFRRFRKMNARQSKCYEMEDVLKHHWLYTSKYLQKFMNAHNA
T3 sequence 2: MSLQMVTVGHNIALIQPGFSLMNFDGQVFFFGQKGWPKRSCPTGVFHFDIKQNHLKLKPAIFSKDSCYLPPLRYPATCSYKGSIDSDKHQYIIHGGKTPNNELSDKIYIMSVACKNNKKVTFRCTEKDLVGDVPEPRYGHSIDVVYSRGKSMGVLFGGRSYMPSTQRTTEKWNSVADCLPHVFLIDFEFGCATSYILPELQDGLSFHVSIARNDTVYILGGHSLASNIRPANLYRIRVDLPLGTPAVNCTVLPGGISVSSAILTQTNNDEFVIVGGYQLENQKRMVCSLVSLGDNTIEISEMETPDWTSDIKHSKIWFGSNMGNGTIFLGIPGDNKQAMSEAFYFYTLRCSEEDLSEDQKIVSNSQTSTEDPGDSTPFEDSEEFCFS
Briefly: EMSA. In general terms: Mobility shift assays separate free from complexed probe on a gel.

Data set [4] concerns the target T3, MCR1 from 293T (co-expressed with …). Kind of data set: EMSA. The source holds these as a separate data set.
Data set [5] has as its target T1, MCR1 (MBP-core RAG1). Briefly: competition.
Data set [6] addresses T1, MCR1 (MBP-core RAG1). Kind of data set: fluorescence anisotropy.
The target of data set [7] is T1, MCR1 (MBP-core RAG1). Briefly: fluorescence anisotropy. The source holds these as a separate data set.
Data set [8] concerns the target T3, MCR1 from 293T (co-expressed with …). Kind of data set: EMSA. The source holds these as a separate data set.
For data set [9], the target named is T1, MCR1 (MBP-core RAG1). Briefly: EMSA. This is another data set of the same source.
The target in data set [10] is T2, MCR1 (MBP-core RAG1);GST-core RAG2. Kind of data set: EMSA. This is another data set of the same source.
Data set [11] deals with T1, MCR1 (MBP-core RAG1). Briefly: fluorescence anisotropy. This is another data set of the same source. In general terms: Polarisation of emitted light reports the rotation of a fluorescent probe.

Read-outs that look alike come from different tables or passages of the source.

B1: WT 12-RSS (dsDNA)
DNA 1: GATATGGCTCGTCTTACACAGTGATATAGACCTTAACAAAAACCTCCAATCGAGCGGAG
DNA 2: CTCCGCTCGATTGGAGGTTTTTGTTAAGGTCTATATCACTGTGTAAGACGAGCCATATC
As usually defined, the Kd is the concentration at which binding is half-saturated. Low readings indicate a tighter complex, high ones a looser complex. Consider B1, for which the Kd with MCR1 (MBP-core RAG1) [1] came to 114 ± 5 nM; in [2], 87 ± 10 nM; in data set [3], 32 ± 5 nM; in data set [4], 25 ± 5 nM.

B2: unlabeled WT 12-RSS competitor (dsDNA)
DNA 1: GATATGGCTCGTCTTACACAGTGATATAGACCTTAACAAAAACCTCCAATCGAGCGGAG
DNA 2: CTCCGCTCGATTGGAGGTTTTTGTTAAGGTCTATATCACTGTGTAAGACGAGCCATATC
A word on the IC50: it is the midpoint of a concentration-inhibition curve. Lower therefore signals greater potency in that assay. In the case of B2, in the data set with MCR1 (MBP-core RAG1) [5], the IC50 came out at 150 nM.

B3: Oregon Green WT 12-RSS (dsDNA)
DNA 1: GATATGGCTCGTCTTACACAGTGATATAGACCTTAACAAAAACCTCCAATCGAGCGGAG
DNA 2: CTCCGCTCGATTGGAGGTTTTTGTTAAGGTCTATATCACTGTGTAAGACGAGCCATATC
For B3, the Kd amounted to 123 nM with MCR1 (MBP-core RAG1) [6] and 27 ± 9 nM in the data set with MCR1 (MBP-core RAG1) [7].

B4: MHMN (mutant heptamer, mutant nonamer) (dsDNA)
DNA 1: GATATGGCTCGTCTTAGAGAAGCATATAGACCTTAAGGCTCTGATCCAATCGAGCGGAG
DNA 2: CTCCGCTCGATTGGATCAGAGCCTTAAGGTCTATATGCTTCTCTAAGACGAGCCATATC
As to B4, the binding result in [8] and in data set [10] was “no binding” each time. The molecule further had a Kd with MCR1 (MBP-core RAG1) [9] of 123 ± 7 nM.

B5: Oregon Green MHMN (dsDNA)
DNA 1: GATATGGCTCGTCTTAGAGAAGCATATAGACCTTAAGGCTCTGATCCAATCGAGCGGAG
DNA 2: CTCCGCTCGATTGGATCAGAGCCTTAAGGTCTATATGCTTCTCTAAGACGAGCCATATC
B5 had a Kd in the data set with MCR1 (MBP-core RAG1) [11] of 28 ± 8 nM.
